In publication PMC5394239 (Nature Communications, 2017):

Molecular target: the molecule itself
Assay: cryo-EM structure

B1: SARS-CoV S ectodomain, uncleaved, trimerization motif and His tag removed by thrombin (domain or fragment)
chain: not shown
stoichiometry N: 3
